Here are results for 3 molecules from patent US20190211097A1 (ADVENTIST HEALTH SYSTEM SUNBELT, published 2019).

In this assay the target is T1, human CD32a (FcgammaRIIa) on washed human platelets (human, UniProt P12318 34-317).
T1 sequence: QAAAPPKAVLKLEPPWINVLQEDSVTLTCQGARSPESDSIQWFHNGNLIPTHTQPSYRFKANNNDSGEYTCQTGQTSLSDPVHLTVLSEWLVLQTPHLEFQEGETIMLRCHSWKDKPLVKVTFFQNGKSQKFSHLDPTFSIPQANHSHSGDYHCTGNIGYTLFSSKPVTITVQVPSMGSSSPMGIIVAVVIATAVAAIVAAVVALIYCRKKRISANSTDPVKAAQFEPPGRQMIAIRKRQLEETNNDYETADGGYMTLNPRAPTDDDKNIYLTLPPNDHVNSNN
Description: cell-based or functional assay.

B1: effector-deficient humanized AT-10 IgG1 E269R mAb (antibody)
heavy: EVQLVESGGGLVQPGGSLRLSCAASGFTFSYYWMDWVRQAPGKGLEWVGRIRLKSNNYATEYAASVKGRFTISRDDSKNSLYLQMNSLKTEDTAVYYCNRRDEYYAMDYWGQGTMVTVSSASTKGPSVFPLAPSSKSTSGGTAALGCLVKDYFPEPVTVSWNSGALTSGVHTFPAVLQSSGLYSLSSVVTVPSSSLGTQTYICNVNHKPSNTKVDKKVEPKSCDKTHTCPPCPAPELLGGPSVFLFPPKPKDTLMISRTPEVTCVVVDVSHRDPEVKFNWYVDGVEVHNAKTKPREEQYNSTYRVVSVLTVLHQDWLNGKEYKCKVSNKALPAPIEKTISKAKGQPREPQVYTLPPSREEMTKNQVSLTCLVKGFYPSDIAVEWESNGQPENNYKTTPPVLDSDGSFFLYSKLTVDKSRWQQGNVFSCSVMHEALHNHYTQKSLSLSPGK
light: EIVLTQSPATLSLSPGERATLSCRASESVDNFGISFLAWYQQKPGQAPRLLIYGASNRATGIPARFSGSGSGTDFTLTISSLEPEDFAVYYCQQSKEVPWTFGQGTKVEIKRTVAAPSVFIFPPSDEQLKSGTASVVCLLNNFYPREAKVQWKVDNALQSGNSQESVTEQDSKDSTYSLSSTLTLSKADYEKHKVYACEVTHQGLSSPVTKSFNRGEC
With B1, the “mAb concentration that inhibited 500 nM M90+CD40L IC-induced platelet aggregation” value worked out at 15 nM.

B2: effector-deficient chimeric IV.3 human IgG2 N297A mAb (antibody)
heavy: QIQLVQSGPELKKPGETVKISCKASGYTFTNYGMNWVKQAPGKGLKWMGWLNTYTGESIYPDDFKGRFAFSSETSASTAYLQINNLKNEDMATYFCARGDYGYDDPLDYWGQGTSVTVSSASTKGPSVFPLAPCSRSTSESTAALGCLVKDYFPEPVTVSWNSGALTSGVHTFPAVLQSSGLYSLSSVVTVPSSNFGTQTYTCNVDHKPSNTKVDKTVERKCCVECPPCPAPPVAGPSVFLFPPKPKDTLMISRTPEVTCVVVDVSHEDPEVQFNWYVDGVEVHNAKTKPREEQFASTFRVVSVLTVVHQDWLNGKEYKCKVSNKGLPAPIEKTISKTKGQPREPQVYTLPPSREEMTKNQVSLTCLVKGFYPSDIAVEWESNGQPENNYKTTPPMLDSDGSFFLYSKLTVDKSRWQQGNVFSCSVMHEALHNHYTQKSLSLSPGK
light: DIVMTQAAPSVPVTPGESVSISCRSSKSLLHTNGNTYLHWFLQRPGQSPQLLIYRMSVLASGVPDRFSGSGSGTAFTLSISRVEAEDVGVFYCMQHLEYPLTFGAGTKLELKRTVAAPSVFIFPPSDEQLKSGTASVVCLLNNFYPREAKVQWKVDNALQSGNSQESVTEQDSKDSTYSLSSTLTLSKADYEKHKVYACEVTHQGLSSPVTKSFNRGEC
As for B2, the “platelet aggregation by the combination of chimeric AT-10 hIgG1 E269R, chimeric IV.3 hIgG2 N297A and MDE-8 IgG1 E269R, 300 nM each” value came out at 300 nM.

B3: effector-deficient humanized IV.3.2 IgG1 E269R mAb (antibody)
heavy: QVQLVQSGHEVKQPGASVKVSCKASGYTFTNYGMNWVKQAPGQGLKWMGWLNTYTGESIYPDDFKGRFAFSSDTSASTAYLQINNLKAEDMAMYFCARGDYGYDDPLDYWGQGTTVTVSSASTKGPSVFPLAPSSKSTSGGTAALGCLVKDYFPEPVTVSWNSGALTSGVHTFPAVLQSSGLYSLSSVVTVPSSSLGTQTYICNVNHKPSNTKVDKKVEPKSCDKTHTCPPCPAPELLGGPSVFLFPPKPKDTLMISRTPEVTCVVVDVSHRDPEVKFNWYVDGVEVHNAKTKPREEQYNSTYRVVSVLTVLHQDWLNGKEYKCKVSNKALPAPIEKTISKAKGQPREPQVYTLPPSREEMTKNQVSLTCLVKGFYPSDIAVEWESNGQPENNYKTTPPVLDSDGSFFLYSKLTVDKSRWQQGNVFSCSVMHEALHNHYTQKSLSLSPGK
light: DIVMTQTPLSLPVTPGEPASISCRSSKSLLHTNGNTYLHWYLQKPGQSPQLLIYRMSVLASGVPDRFSGSGSGTDFTLKISRVEAEDVGVYYCMQHLEYPLTFGGGTKVEIKRTVAAPSVFIFPPSDEQLKSGTASVVCLLNNFYPREAKVQWKVDNALQSGNSQESVTEQDSKDSTYSLSSTLTLSKADYEKHKVYACEVTHQGLSSPVTKSFNRGEC
For B3, the “mAb concentration that inhibited 500 nM M90+CD40L IC-induced platelet aggregation” value stood at 3 nM.
